Test results taken from publication PMC4465127 (2015).

Target: T1, LIN-3 EGF domain EGF (Caenorhabditis elegans, UniProt Q03345)
T1 chain: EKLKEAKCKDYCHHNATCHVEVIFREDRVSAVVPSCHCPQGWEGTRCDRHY

Kd: ~3000 nM
B1: sLET-23 ECD (protein)
chain: FGNSNAQLWKRCVSPQDCLCSGTTNGISRYGTGNILEDLETMYRGCRRVYGNLEITWIEANEIKKWRESTNSTVDPKNEDSPLKSINFFDNLEEIRGSLIIYRANIQKISFPRLRVIYGDEVFHDNALYIHKNDKVHEVVMRELRVIRNGSVTIQDNPKMCYIGDKIDWKELLYDPDVQKVETTNSHQHCYQNGKSMAKCHESCNDKCWGSGDNDCQRVYRSVCPKSCSQCFYSNSTSSYECCDSACLGGCTGHGPKNCIACSKYELDGICIETCPSRKIFNHKTGRLVFNPDGRYQNGNHCVKECPPELLIENDVCVRHCSDGHHYDATKDVRECEKCRSSSCPKICTVDGHLTNETLKNLEGCEQIDGHLIIEHAFTYEQLKVLETVKIVSEYITIVQQNFYDLKFLKNLQIIEGRKLHNVRWALAIYQCDDLEELSLNSLKLIKTGAVLIMKNHRLCYVSKIDWSSIITSKGKDNKPSLAIAENRDSKLCETEQRVCDKNCNKRGCWGKEPEDCLECKTWKSVGTCVEKCDTKGFLRNQTSMKCERCSPECETCNGLGELDCLTCRHKTLYNSDFGNRMECVHDCPVSHFPTQKNVCEKCHPTCYDNGCTGPDSNLGYGGCKQCKYAVKYENDTIFCLQSSGMNNVCVENDLPNYYISTYDTEGVIETHCEKCSISCKTCSSAGRNVVQNKCVCKHVEYQPNPSERICMDQCPVNSFMVPDTNNTVCKKCHHECDQNYHCANGQSTGCQKCKNFTVFKGDIAQCVSECPKNLPFSNPANGECLDYDIASRQRKTR
